This test deals with MED14-containing head+middle (H+M+14) complex (human) (UniProt O60244). Put plainly: co-IP.

With “RNA polymerase II (from UniProt P24928;P61218) (complex)”, the percent of input bound is < 75 % of input.

Values taken from paper PMC4259101.
